Assay results published in article PMC11211510, “Sequence-specific dynamic DNA bending explains mitochondrial TFAM’s dual role in DNA packaging and transcription initiation”.

T1: TFAM (UniProt Q00059 43-245)
T1 sequence: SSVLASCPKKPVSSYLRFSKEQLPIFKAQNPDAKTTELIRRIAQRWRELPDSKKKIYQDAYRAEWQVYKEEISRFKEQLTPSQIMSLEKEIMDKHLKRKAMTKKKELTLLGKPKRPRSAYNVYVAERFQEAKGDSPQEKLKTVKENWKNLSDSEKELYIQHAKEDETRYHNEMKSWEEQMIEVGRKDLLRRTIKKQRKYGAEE

T2: TFAM-ΔC26 (C-tail deletion) (UniProt Q00059 43-220)
T2 sequence: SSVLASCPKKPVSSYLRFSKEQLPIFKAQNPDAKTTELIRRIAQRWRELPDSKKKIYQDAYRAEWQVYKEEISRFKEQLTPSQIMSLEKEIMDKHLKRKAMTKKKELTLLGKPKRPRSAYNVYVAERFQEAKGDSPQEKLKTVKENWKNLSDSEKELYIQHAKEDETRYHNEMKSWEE


Tests used:
TFAM [1] = target: T1, TFAM; experiment: fluorescence anisotropy; 10 mM Mg acetate; apparent Kd; 50 mM Tris acetate pH 7.5, 100 mM Na glutamate, 50 mM NaCl, 10 mM Mg acetate, 0.5 mM TCEP, 0.01% Tween 20, 0.1 mg/ml BSA, 25 °C; 5 nM DNA, 0-75 nM TFAM; details: protein: recombinant; tags: N-terminal 6xHis, TEV-cleaved; label: fluorescein (FITC) at 3' end of template strand; blunt
TFAM [2] = target: T1, TFAM; experiment: smFRET; bending equilibrium K(F/P) 1.70 ± 0.74; 50 mM Tris acetate pH 7.5, 100 mM Na glutamate, 50 mM NaCl, 10 mM Mg acetate, 0.5 mM TCEP, 0.01% Tween 20, 0.1 mg/ml BSA, 25 °C; 5 nM DNA, 0-75 nM TFAM; details: protein: recombinant; tags: N-terminal 6xHis, TEV-cleaved; label: Atto565 at 5' non-template, Atto647N at 5' template; blunt
[3] = target: T2, TFAM-ΔC26 (C-tail deletion); experiment: fluorescence anisotropy; 10 mM Mg acetate; 50 mM Tris acetate pH 7.5, 100 mM Na glutamate, 50 mM NaCl, 10 mM Mg acetate, 0.5 mM TCEP, 0.01% Tween 20, 0.1 mg/ml BSA, 25 °C; 5 nM DNA, 0-75 nM TFAM; details: protein: recombinant; tags: SUMO fusion, cleaved; label: fluorescein (FITC) at 3' end of template strand; blunt
TFAM [4] = target: T1, TFAM; experiment: smFRET; bending equilibrium K(F/P) 24.6 ± 7.6; 50 mM Tris acetate pH 7.5, 100 mM Na glutamate, 50 mM NaCl, 10 mM Mg acetate, 0.5 mM TCEP, 0.01% Tween 20, 0.1 mg/ml BSA, 25 °C; 5 nM DNA, 0-75 nM TFAM; details: protein: recombinant; tags: N-terminal 6xHis, TEV-cleaved; label: Atto565 at 5' non-template, Atto647N at 5' template; blunt
TFAM [5] = target: T1, TFAM; experiment: smFRET; bending equilibrium K(F/P) 0.59 ± 0.24; 50 mM Tris acetate pH 7.5, 100 mM Na glutamate, 50 mM NaCl, 10 mM Mg acetate, 0.5 mM TCEP, 0.01% Tween 20, 0.1 mg/ml BSA, 25 °C; 5 nM DNA, 0-75 nM TFAM; details: protein: recombinant; tags: N-terminal 6xHis, TEV-cleaved; label: Atto565 at 5' non-template, Atto647N at 5' template; blunt

Binder | Kd (TFAM [1]) | Kd [3] | other results
LSP (-41 to -12), fluorescein (dsDNA) DNA 1: TGTGTTAGTTGGGGGGTGACTGTTAAAAGT DNA 2: ACTTTTAACAGTCACCCCCCAACTAACACA | ~0.009 µM |  | 
HSP, Atto565/Atto647N (dsDNA, biotin-2xPEG18 at 3' end of template) DNA 1: CACACCGCTGCTAACCCCATACCCCGAACC DNA 2: GGTTCGGGGTATGGGGTTAGCAGCGGTGTG |  |  | binding result (TFAM [2]): binds
HSP (-41 to -12), fluorescein (dsDNA) DNA 1: CACACCGCTGCTAACCCCATACCCCGAACC DNA 2: GGTTCGGGGTATGGGGTTAGCAGCGGTGTG | ~0.043 µM | ~0.1 µM | 
LSP, Atto565/Atto647N (dsDNA, biotin-2xPEG18 at 3' end of template) DNA 1: TGTGTTAGTTGGGGGGTGACTGTTAAAAGT DNA 2: ACTTTTAACAGTCACCCCCCAACTAACACA |  |  | binding result (TFAM [4]): binds
NS (non-specific), fluorescein (dsDNA) DNA 1: TAGCAGGAGCAGGAACAGGATGAACAAGCA DNA 2: TGCTTGTTCATCCTGTTCCTGCTCCTGCTA | ~0.044 µM | ~0.1 µM | 
NS, Atto565/Atto647N (dsDNA, biotin-2xPEG18 at 3' end of template) DNA 1: TAGCAGGAGCAGGAACAGGATGAACAAGCA DNA 2: TGCTTGTTCATCCTGTTCCTGCTCCTGCTA |  |  | binding result (TFAM [5]): binds
